Test results taken from US20090232837A1.

Target: RTQKEASI peptide (mammalian)
Test: ELISA, peptide adsorbed to wells (10 mg/ml)

Negative control (ELISA of Table 3)
OD: 0.141 OD
